# Data from a protein production outcome set (Wang et al. 2014).
# Assay: label from the status in PepcDB records
# 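Also: failed if final PepcDB status was selected cloned or expressed and not failed if soluble or beyond.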
sequence,measurement,value
MAYDNRAVVRKVLLITLLLNLFVMGLKAFVGYLTGSLSLLADALHSVTDSANNILGLFASSFSSPYPDREHPYGHHKFEAVGALGIAAFLGIACFEILQGAIERILKGGAPVRISPPELWLLLIVLGVNIFVAFYERNEGKRVGSQILIADATHTMSDVWVTISVIFGLIGVWLGYQWLDIVLAFPVALLVFWSGWSVLKENLPWLVDQMAIAPEAIHAIAVAVPGVINCHDIASRGVLGRQIFMEMHLIVDAPDVETAHRITEEVERRLEERFSPVRIIIHVEPPNYESEQISFETGSK,protein production,failed
MTDPLQRPRRKDPLRRTTLGHVPPRLRSRAAMEMATHAAQGRFVLQTCESCDRATYPPRDRCPNCWGELVWREQDAGGQVAAETTIRHSTDTYFRNHMPWRIGTVRLDAGPTAIVHLHGEAGVGDRVNMVLKLDRGGNPALFAMPRGDVPNMQDDPQFRSFTADPKHRRVLVTDGRTDTGQAIARALLDAGAAKVFVGDCAPLMRFAGKQQLAALDGAELVPLDVTDTHSVGNLAAQLGGRIDIVINTAGQVREGGVAFGAKLSDLQAGLDTGVVGLMRLAQAFGPALGARSDDGVNSAAAFLDVVPVSGLSGQSGYSGTAASAAARLSLLSGFRGEMQKAGIRVMSVLTGPVDDAWHQRLPQPKTAPSHLARTVVAALRDGQEISCAGDVAKDLFARWRADPLLTMREENR,protein production,failed
MAKKTSSLLSRRRTRRPGEPPLDLGSIPWLGYALDFGKDAASFLTRMKEKHGDIFTILVGGRYVTVLLDPHSYDAVVWEPRTRLDFHAYAIFLMERIFDVQLPHYSPSDEKARMKLTLLHRELQALTEAMYTNLHAVLLGDATEAGSGWHEMGLLDFSYSFLLRAGYLTLYGIEALPRTHESQAQDRVHSADVFHTFRQLDRLLPKLARGSLSVGDKDHMCSVKSRLWKLLSPARLARRAHRSKWLESYLLHLEEMGVSEEMQARALVLQLWATQGNMGPAAFWLLLFLLKNPEALAAVRGELESILWQAEQPVSQTTTLPQKVLDSTPVLDSVLSESLRLTAAPFITREVVVDLAMPMADGREFNLRRGDRLLLFPFLSPQRDPEIYTDPEVFKYNRFLNPDGSEKKDFYKDGKRLKNYNMPWGAGHNHCLGRSYAVNSIKQFVFLVLVHLDLELINADVEIPEFDLSRYGFGLMQPEHDVPVRYRIRPHHHH,protein production,not failed
MDRLSYAIGDKAVLNNIRVQFQPGSVTALLGPNGAGKSTLLKALCQEIPSAQGSIKLGHCQLVDWPRAELAKSLAVLPQHASLTFPFTVDEVVAMGLYPLTLSQKEGQQLVTKWLAEVGVLHLARRSYPTLSGGEKQRVQLARVLTQLSQSPFPPILLLDEPTSALDLAQQHKVLALAKNLAHKHAYTVIVVLHDLNQAARYSDRVIVLKQGEIVSEGTPNDALSIDIIRQVWDYEPEFIPAPQGDYPLIF,protein production,failed
GQDYLDIIGRLLPVLPYNLAIIGADGQVLLMNPPMSRITGMSLRQFVMYPSDWVVQEDKAAVADAVRRYSSGRALSGEISVRLIAKPEETVILTLTGIRHLGESALMISLQESASENEIKQQMAQTTRMQAIGQLAGGVAHDFNNILTAI,protein production,failed
MPLRCTKPLGATPATPTAPPTGRKGHQVAINGFITWILVTMSLVVYFLWAFIPTSFLDMVLASYYPDKYWAVAIPAILVMTMVYYLTVHFLLMLYRTDPLTDGFCVAQTNGAVRHESIENLVDVEDGVPPITDIPVSVASRLLFQPWN,protein production,failed
MTIAEIRKFAQTTQKFVEAENLFEHGNVVLPKKYLNKARGMAEVLYNSQVIKVSFTAKDGELTCKCSCLANVDNCVHIVAVLLKYHQMLVESKRSFNLAEAFHLDCDQAEMLIENLSLEIIAGGNFKLGFTINLDKHNPQPSVLRFYCCDATFVYFLHLENDTLHSVELSKFKPEERATLLFFDKLCKQFTVGYDRNSLLFPLAGFLKELQANTEPTIFVFNDDKIDNILFLRISKKHHGLNHVCGFSGKKVFDFVTYKQKEKQIVLRSAYLSKFTDFKFPYTINIYKLQFGEPLFFYFLIQLKRDGFKNFYFQSEDSIVKEKEYLPKLYFKVEYDPVKNKFVSDAFFKYKNHFNKGTTTVYPHRYYMAKKSDRGGFNRLLFYEEAVENFYQDQFDLGYFRKFEHLPIQDKNQIEAFKAALDDLMPVDLAEVSLSDNLLHQKPLHFALSDLEAVAVDDKQIKLSFAPSAVELKLIKRILSAYHKGNVVCIDQESWYDLKQPAAKELIQFNQFDLRNATSDGNHIYLPKYYLFEVAKIFSQYLDIKNLFDVPTIKKIEDQNNNVFDLSLEHKKITSLRNYQQEGVKIRGLEENKFGGILADEMGLGKTVQVIFALLDSYLKNHVNLPSLIIVPASLLLNKSEFEKFAPQIKVKVANIPSKERGELYEKLTNEILIVSFNVLRSDVKLITKQRFHYVVIDEAQGIKNDSSSITKAAKKVKGNFCLALTGTPIENRLLDLSCFDFVLPSFLGNKKQFTDQFEKEKTDQSFHLLMQRTSPFILRRTKSKVLKELPNKITTDIYVELNPMHQKLYEEERDRGLEEIKQIQDKSSFNILTLILKLRHLCSLPKNSQGILENSAKKEAALEIIHEAIENQRKIILFTQFIDVIDHFKDTFKEQGIEYFIFDGRKSPKSRHSIIEKFNNAKNPCVLLASLKAGGVGINLTAAEVVIHFDVWNTAVENQATDRAHRIGQKKTVQVYRIIAKNTIEERVCQVQAEKQELVSKTLVEDVNFFESLTNEELLRLFE,protein production,failed
SSPIRLSTSNLPMTLTTNTSSGAPNKAFNTSSVNSGNSFSRTTTSSTTTTTERIEIRAEGDGEVDTDSIRKRITERLRRSVSKTISNLAGTPVTNTEEGSRYSRSVSRSVYDDEKSSKRSYSTGEEDIDEEDELEEDQFRSFNVTRKSATPAEISCRQLKAPREFGGWLGAFLFLLLLPTAVYYLTWSCTARNACQFKHLNLGILLDVNYLTRQVFQPRVVGAFAAYQVVVFLLVALLPGRRVHLTRETYKFNCLAVSLTLLIASGVAEYLKYPVVTFVLRHYLRFCIFGLVGAFVAAAW,protein production,failed
DPSPQTIYKWIKDNISPKLHVDKGFVNILMTSFLQYISSEVNPPSDETDSSSAPS,protein production,failed
MDCIRNNSVLINNLSSFTSGIMSSGYSPFYILYIAMNIATLTYAVGTLFYGLPIPIYGLKKWGPRMMSDAIYAAVWVNIYGIIIFAIGQIQSLLGVDWSSFFSSILQLQANMFSALIQVKSLYYIITTEKISMALALLADPVLQFSSFITDIIFLLQFFIDLGEFIQQSYMILIAIGILLLSLPFRMGKGVGGTLISSAIIFYIGLPYLPIFMQEMSSITLSQIGSQLSTITDVNTLVETIAGVVPELVIVFIIIPMLYLSILAGISLGLGNAIGGSSGRVPFPLDLF,protein production,failed
MTGFAPQAGLPSHSVQVADHFDGNSPRGSPMSSGGHPVDRNRGLQPQKEAFSGPAAGKPFHPQALSKYSRHYSPEDELSAEAQPIAAYKIVSQSNKQLLAGSVSVTSLSSRTTELATADPFALAPFPSKAGKQKP,protein production,failed
MVTKLALLGAGRIGKVHAKAITTDSRAKLVAVVDAMAGAAEAIAREAQCKVSTIDEVLADKTIDAVIICTPTNTHADLIERFARAGKAIFCEKPVDLDVARAEACAKVVEETGAKVMLGFNRRFDPHFQAVHKAIEDGRIGKVEMVTITSRDPGPPPAEYIKVSGGIFRDMTIHDFDMARFLLGEEVESVFATGSVLVNPEIGALGDFDSASIILTTKSGRQAIISNSRRATYGYDQRIEVHGSEGSAAAENQRPVSIEIANADGYTRPPLHDFFMTRYTTAYAAEIAAFIDSIENNVSPSPSIKDGLIALKLADAALKSATSKTVVTIG,protein production,failed
MHQQIIKFWFEELTPQNWFENNPELDKHIASRFASVLEQAARCELFNWRDSAQGRLAEIIVLDQFSRNVYRNTPKAFAQDPLALALAQEAIRLGHDQELAPEQLSFLYMPFMHSESRLIHVEAEKLFRASGLENNYDFELKHKAIIDQFGRYPHRNAILGRESTPEELAFLQQPGSSF,protein production,not failed
MEHICGTSRIAGFRFSLYPMTDDFISVIKSALKKTDTSKVWTKTDHISTVLRGSIDHVFDAAKAIYLHAANSEQHIVMNGTFSIGCPGDTQGDTYLSKGDKRVNEDAVRGLKAEAPCQFALYPMNEPDYMGLIMEAVDIAKAQGTFVQGVHYASELDGDAHDVFSTLEAVFRMAEQQTNHITMTVNLSANSPSRKNRKQG,protein production,not failed
MNVTLGTGDGADFWVFGFGSLIWKPDIPFEECRDAFITGWRRRFWQHSTDHRGTESYPGRVATLVLAEQPGERCYGRAYRVDNEAAADVLAYLDEREKQGYSRLALPVYDARSAEQITKHALVYIAREDNPHFVRAADERQIPVLCRIIARARGPSGDNATYLFRLKESLDEIGVRDEHVDELVFGVRAELEALASACSESTPHGVAVAPTAASFDAVPASSDDLR,protein production,failed
MENEKIWIKELKEKRLAYGVSQNKLAVASHITRPYLSDIETGKAVPTQQVKEDLLNALERFNPDNPLEMLFDYVRIRFPTNDVAQIIGEVLRLNMDYMLHEDFGYYSYPEHYRFGDIVVLVSHDVSKGVLLELKGKGCRQFENFLLAQHRSWYDFFQDCMEHKGIFKRLDLAINDKTGILNIPDLAKKCKQEECISVFRSFKNYRSGELVHRDEKPYMGNTLYIGSLKSEVYFCIYEKDYEQYVKNDVPLEDAEVKNRFEIRLKNDRATQAMKDLLAHQQAEKTAFEIINRYIRFADKDDTKRRSDWKTNERWEWFIGKNRGALRLTTQPEPYSFERTLNWLHHQVAPTLKIASILDVLNGTTIISTMIQEAKLTEKHEKLIEQQHLAMEDLIT,protein production,not failed
MTTATSERQKTLLFKAAERQWKEEFAGKETDIRKVDCNIYKGILYQLEIRQVFLDTSLSLKKLSALLETNQTYLSNVVNKYFGCNLKELVNTYRVEYAKELLCSRRCALTELPCSCGFASKSAFYSAFSRIVGVSPLSYQTQERRLEHHHHHH,protein production,not failed
MRHVSNGDPVRVVIVTDGAYGAPAESGDYAQTRRRESTRAAAILGYGAPEFWNLPDRGLEYGERLIQRVLTAMEDHAAELVYAPSWWEVHPDHRVLALAATEAVRRCTRPLRLAMYEVGVPLQPNALLDITDLAERKASAVACFSSQLAQQDYDEQIASLNRFRTYTLPRTVRAAEGYLVLAAEELRNRIPRMMTQKDRLAVRGETGDTAATPLVSVIIPSMDGPRLKEALDSVALQTYPRIEAVVIDAKGEGHTPLPRWCGRFPLRFIPSDISLSRGRAADVGLEHAEGDYLVFLGEDDVFQPGDVASLVAEAARKQGTGLCSHADRRMTVFSGGVVDGSPRTGKPGKPAFLPLHAVLFDRSLAELRCRFDGDANVPEDGDFWDQAMQHVASIHPGACRHGHGLPGGEAGRHTIVRLPPWTSPAPLPPGASLARTPHPTERDSLRRRIQRAGRRIYETPPRGLTDALVRTAYRIWARLSSDSMITNDGKGTLEHHHHHH,protein production,failed
MPAPAATYERVVYKNPSEYHYMKVCLEFQDCGVGLNAAQFKQLLISAVKDLFGEVDAALPLDILTYEEKTLSAILRICSSGLVKLWSSLTLLGSYKGKKCAFRVIQVSPFLLALSGNSRELVLD,protein production,not failed
VKRFWENVGKPNDTTDGRGTTSLAMTPISQTPGLLAEAMVDLGAIEHNVRVLREHAGHAQLMAVVKADGYGHGATRVAQTALGAGAAELGVATVDEALALRADGITAPVLAWLHPPGIDFGPALLADVQVAVSSLRQLDELLHAVRRTGRTATVTVKVDTGLNRNGVGPAQFPAMLTALRQAMAEDAVRLRGLMSHMVYADKPDDSINDVQAQRFTAFLAQAREQGVRFEVAHLSNSSATMARPDLTFDLVRPGIAVYGLSPVPALGDMGLVPAMTVKCAVALVKSIRAGEGVSYGHTWIAPRDTNLALLPIGYADGVFRSLGGRLEVLINGRRCPGVGRICMDQFMVDLGPGPLDVAEGDEAILFGPGIRGEPTAQDWADLVGTIHYEVVTSPRGRITRTYREAENR,protein production,not failed
